Test results as given in IntAct's records for PubMed 20798051.

Biological target: fgfr4_human FGFR4 (UniProt P22455)
UniProt P22455, sequence (P22455 whole entry, looked up): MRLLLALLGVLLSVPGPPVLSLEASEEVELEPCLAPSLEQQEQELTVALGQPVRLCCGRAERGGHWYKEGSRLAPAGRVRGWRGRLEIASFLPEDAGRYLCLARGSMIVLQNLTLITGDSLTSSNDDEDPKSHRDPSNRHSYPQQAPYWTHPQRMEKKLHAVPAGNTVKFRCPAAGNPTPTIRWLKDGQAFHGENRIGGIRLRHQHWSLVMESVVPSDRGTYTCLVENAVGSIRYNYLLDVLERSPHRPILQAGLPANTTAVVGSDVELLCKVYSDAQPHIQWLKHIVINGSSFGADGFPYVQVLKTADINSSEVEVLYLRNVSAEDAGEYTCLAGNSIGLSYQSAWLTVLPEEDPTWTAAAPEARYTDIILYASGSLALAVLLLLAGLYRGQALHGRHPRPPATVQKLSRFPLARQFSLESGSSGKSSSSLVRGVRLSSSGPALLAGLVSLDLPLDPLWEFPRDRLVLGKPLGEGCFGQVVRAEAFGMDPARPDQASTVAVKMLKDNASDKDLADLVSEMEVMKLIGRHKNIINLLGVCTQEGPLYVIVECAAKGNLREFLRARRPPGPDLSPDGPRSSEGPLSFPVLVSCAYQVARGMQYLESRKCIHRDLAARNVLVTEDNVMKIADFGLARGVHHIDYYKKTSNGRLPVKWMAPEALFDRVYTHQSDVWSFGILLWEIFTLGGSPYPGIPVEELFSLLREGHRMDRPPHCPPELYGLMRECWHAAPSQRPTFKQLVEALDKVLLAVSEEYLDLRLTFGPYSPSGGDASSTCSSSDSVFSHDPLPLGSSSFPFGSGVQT

effect of a mutation on the interaction | Substance
decreasing interaction | Matrix metalloproteinase-14 (Homo sapiens) (from UniProt P50281) Y573F
decreasing interaction | Matrix metalloproteinase-14 (Homo sapiens) (from UniProt P50281) E240A
